Assay results taken from patent US20030091584A1.
Values joined by “and” are separate entries in the source; they are usually repeats but may differ in a detail not shown here. Identical values can stand only once.

Assays:
[1] = molecular target: RSV F protein (immobilized on the BIAcore sensor chip) (respiratory syncytial virus); assay: BIAcore, immobilized F protein
Bac-F = assay: BIAcore, mAb vs Bac-F (1:1)

Sequence of RSV F protein (immobilized on the BIAcore sensor chip) (respiratory syncytial virus) (P03420 26-524): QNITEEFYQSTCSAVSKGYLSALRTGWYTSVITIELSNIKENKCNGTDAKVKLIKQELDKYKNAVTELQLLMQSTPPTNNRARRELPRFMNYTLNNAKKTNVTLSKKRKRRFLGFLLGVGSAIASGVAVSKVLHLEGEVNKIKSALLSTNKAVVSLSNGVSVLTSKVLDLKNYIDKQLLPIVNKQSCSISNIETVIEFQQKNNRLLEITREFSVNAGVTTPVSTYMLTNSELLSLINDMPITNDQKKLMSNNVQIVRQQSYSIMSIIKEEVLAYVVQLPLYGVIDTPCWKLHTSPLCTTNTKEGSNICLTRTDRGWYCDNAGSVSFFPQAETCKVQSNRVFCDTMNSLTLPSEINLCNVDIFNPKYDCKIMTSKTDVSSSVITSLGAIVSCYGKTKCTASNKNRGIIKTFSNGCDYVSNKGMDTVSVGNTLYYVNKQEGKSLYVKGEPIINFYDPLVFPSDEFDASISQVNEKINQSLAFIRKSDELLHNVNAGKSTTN

| Binder | koff [1] | kon [1] | Kd (Bac-F) | koff (Bac-F) | kon (Bac-F) | number in parentheses after KD (fold against SYNAGIS = 1) (Bac-F) |
| --- | --- | --- | --- | --- | --- | --- |
| AFFF (monoclonal antibody) (antibody, V domains shown) VH: QVTLRESGPALVKPTQTLTLTCTFSGFSLSTAGMSVGWIRQPPGKALEWLADIWWDDKKDYNPSLKSRLTISKDTSKNQVVLKVTNMDPADTATYYCARSMITNFYFDVWGAGTTVTVSS VL: DIQMTQSPSTLSASVGDRVTITCSASSSVGYMHWYQQKPGKAPKLLIYDTFKLASGVPSRFSGSGSGTEFTLTISSLQPDDFATYYCFQFSGYPFTFGGGTKLEIK | 0.000274 s⁻¹ and 0.000266 s⁻¹ and 0.000206 s⁻¹ | 108000 M⁻¹ s⁻¹ and 96000 M⁻¹ s⁻¹ and 124000 M⁻¹ s⁻¹ |  |  |  |  |
| L1-7E5 (Fab fragment) (Fab, V domains shown) VH: QVTLRESGPALVKPTQTLTLTCTFSGFSLSTAGMSVGWIRQPPGKALEWLADIWWDDKKDYNPSLKSRLTISKDTSKNQVVLKVTNMDPADTATYYCARDMITNFYFDVWGAGTTVTVSS VL: DIQMTQSPSTLSASVGDRVTITCSASSSVGYMHWYQQKPGKAPKLLIYDTFRLASGVPSRFSGSGSGTEFTLTISSLQPDDFATYYCFQGSGYPFTFGGGTKLEIK | 0.000192 s⁻¹ and 0.000331 s⁻¹ and 0.000229 s⁻¹ |  |  |  |  |  |
| AFFF (Fab fragment) (Fab, V domains shown) VH: QVTLRESGPALVKPTQTLTLTCTFSGFSLSTAGMSVGWIRQPPGKALEWLADIWWDDKKDYNPSLKSRLTISKDTSKNQVVLKVTNMDPADTATYYCARSMITNFYFDVWGAGTTVTVSS VL: DIQMTQSPSTLSASVGDRVTITCSASSSVGYMHWYQQKPGKAPKLLIYDTFKLASGVPSRFSGSGSGTEFTLTISSLQPDDFATYYCFQFSGYPFTFGGGTKLEIK | 0.000245 s⁻¹ and 0.000446 s⁻¹ and 0.000268 s⁻¹ | 212000 M⁻¹ s⁻¹ and 156000 M⁻¹ s⁻¹ and 186000 M⁻¹ s⁻¹ |  |  |  |  |
| A1e9 (monoclonal antibody) (antibody, V domains shown) VH: QVTLRESGPALVKPTQTLTLTCTFSGFSLSTPGMSVGWIRQPPGKALEWLADIWWDGKKHYNPSLKDRLTISKDTSKNQVVLKVTNMDPADTATYYCARDMIFNWYFDVWGQGTTVTVSS VL: DIQMTQSPSTLSASVGDRVTITCSLSSRVGYMHWYQQKPGKAPKLLIYDTFKLSSGVPSRFSGSGSGTEFTLTISSLQPDDFATYYCFQGSGYPFTFGGGTKVEIK |  |  | 0.33 nM | 0.000143 s⁻¹ | 433000 M⁻¹ s⁻¹ | 12 fold |
| P12f2 (monoclonal antibody) (antibody, V domains shown) VH: QVTLRESGPALVKPTQTLTLTCTFSGFSLSTPGMSVGWIRQPPGKALEWLADIWWDDKKHYNPSLKDRLTISKDTSKNQVVLKVTNMDPADTATYYCARDMIFNFYFDVWGAGTTVTVSS VL: DIQMTQSPSTLSASVGDRVTITCSLSSRVGYMHWYQQKPGKAPKLLIYDTFYLSSGVPSRFSGSGSGTEFTLTISSLQPDDFATYYCFQGSGYPFTFGGGTKVEIK |  |  | 0.31 nM | 0.000128 s⁻¹ | 407000 M⁻¹ s⁻¹ | 13 fold |
| A13c4 (monoclonal antibody) (antibody, V domains shown) VH: QVTLRESGPALVKPTQTLTLTCTFSGFSLSTAGMSVGWIRQPPGKALEWLADIWWDGKKSYNPSLKDRLTISKDTSKNQVVLKVTNMDPADTATYYCARDMIFNFYFDVWGQGTTVTVSS VL: DIQMTQSPSTLSASVGDRVTITCSLSSRVGYMHWYQQKPGKAPKLLIYDTMYQSSGVPSRFSGSGSGTEFTLTISSLQPDDFATYYCFQGSGYPFTFGGGTKVEIK |  |  | 0.13 nM | 3.96e-05 s⁻¹ | 300000 M⁻¹ s⁻¹ | 30 fold |
| P11d4 (monoclonal antibody) (antibody, V domains shown) VH: QVTLRESGPALVKPTQTLTLTCTFSGFSLSTPGMSVGWIRQPPGKALEWLADIWWDGKKHYNPSLKDRLTISKDTSKNQVVLKVTNMDPADTATYYCARDMIFNWYFDVWGQGTTVTVSS VL: DIQMTQSPSTLSASVGDRVTITCSPSSRVGYMHWYQQKPGKAPKLLIYDTMRLASGVPSRFSGSGSGTEFTLTISSLQPDDFATYYCFQGSGYPFTFGGGTKVEIK |  |  | 0.62 nM | 0.000289 s⁻¹ | 466000 M⁻¹ s⁻¹ | 6 fold |
| P12f4 (monoclonal antibody) (antibody, V domains shown) VH: QVTLRESGPALVKPTQTLTLTCTFSGFSLSTPGMSVGWIRQPPGKALEWLADIWWDGKKHYNPSLKDRLTISKDTSKNQVVLKVTNMDPADTATYYCARDMIFNFYFDVWGQGTTVTVSS VL: DIQMTQSPSTLSASVGDRVTITCSLSSRVGYMHWYQQKPGKAPKLLIYDTRGLPSGVPSRFSGSGSGTEFTLTISSLQPDDFATYYCFQGSGYPFTFGGGTKVEIK |  |  | 0.11 nM | 5.55e-05 s⁻¹ | 495000 M⁻¹ s⁻¹ | 35 fold |
| A12a6 (monoclonal antibody) (antibody, V domains shown) VH: QVTLRESGPALVKPTQTLTLTCTFSGFSLSTAGMSVGWIRQPPGKALEWLADIWWDGKKDYNPSLKDRLTISKDTSKNQVVLKVTNMDPADTATYYCARDMIFNFYFDVWGQGTTVTVSS VL: DIQMTQSPSTLSASVGDRVTITCSASSRVGYMHWYQQKPGKAPKLLIYDTFKLSSGVPSRFSGSGSGTEFTLTISSLQPDDFATYYCFQGSGYPFTFGGGTKVEIK |  |  | 0.04 nM | 1.65e-05 s⁻¹ | 460000 M⁻¹ s⁻¹ | 98 fold |
| A8c7 (monoclonal antibody) (antibody, V domains shown) VH: QVTLRESGPALVKPTQTLTLTCTFSGFSLSTAGMSVGWIRQPPGKALEWLADIWWDDKKSYNPSLKDRLTISKDTSKNQVVLKVTNMDPADTATYYCARDMIFNWYFDVWGQGTTVTVSS VL: DIQMTQSPSTLSASVGDRVTITCSASSRVGYMHWYQQKPGKAPKLLIYDTRYQSSGVPSRFSGSGSGTEFTLTISSLQPDDFATYYCFQGSGYPFTFGGGTKLEIK |  |  | 0.21 nM | 8.75e-05 s⁻¹ | 417000 M⁻¹ s⁻¹ | 19 fold |
| A17d4 (monoclonal antibody) (antibody, V domains shown) VH: QVTLRESGPALVKPTQTLTLTCTFSGFSLSTAGMSVGWIRQPPGKALEWLADIWWDGKKSYNPSLKDRLTISKDTSKNQVVLKVTNMDPADTATYYCARDMIFNFYFDVWGQGTTVTVSS VL: DIQMTQSPSTLSASVGDRVTITCLPSSRVGYMHWYQQKPGKAPKLLIYDTMYQASGVPSRFSGSGSGTEFTLTISSLQPDDFATYYCFQFSGYPFTFGGGTKLEIK |  |  | 0.09 nM | 4.07e-05 s⁻¹ | 456000 M⁻¹ s⁻¹ | 43 fold |
